For test [1], the target named is CD40 receptor (human), on CD14+ monocytes (human) (UniProt P25942).
Test [2] has the same target. This is another data set of the same source.

For “clone 64 (agonist anti-human CD40 monoclonal antibody, PanGenetics, The Netherlands)”, in test [1], the TNF-α production by CD14+ monocytes (ELISA of supernatant after 24 h) worked out at 449 pg/mL. In test [2], this substance yielded an IL-1β production by purified CD14+ cells of MDS patients (ELISA) of 18 pg/mL, an IL-6 production by purified CD14+ cells of MDS patients (ELISA) of 1210 pg/mL and an IL-10 production by purified CD14+ cells of MDS patients (ELISA) of 1650 pg/mL.

(Values after patent publication US20100316632A1.)
